Test results as given in US11872270B2, “A*03 restricted peptides for use in immunotherapy against cancers and related methods” (Immatics Biotechnologies GmbH, priority 2018, dated 2024).
Each block holds one substance with its values, some of them ahead of it.

Target: HLA-A*03:01 (Homo sapiens, UniProt P04439)
Assay: MHC binding assay (UV-ligand exchange, β2m ELISA)
Details: for Peptide exchange (MHC class I binding score, peptide exchange yield): binding to HLA-A*03:01, UV-ligand exchange, β2m ELISA
Text: Candidate peptides for T cell based therapies according to the present invention were further tested for their MHC binding capacity (affinity). The individual peptide-MHC complexes were produced by UV-ligand exchange, where a UV-sensitive peptide is cleaved upon UV-irradiation and exchanged with the peptide of interest as analyzed. Only peptide candidates that can effectively bind and stabilize the peptide-receptive MHC molecules prevent dissociation of the MHC complexes. To determine the yield of the exchange reaction, an ELISA was performed based on the detection of the light chain (β2m) of stabilized MHC complexes. The assay was performed as generally described in Rodenko et al. (Rodenko et al., 2006) 96 well MAXISorp plates (NUNC) were coated over night with 2 ug/ml streptavidin in PBS at room temperature, washed 4× and blocked for 1 h at 37° C. in 2% BSA containing blocking buffer. Refolded HLA-A*02:01/MLA-001 monomers served as standards, covering the range of 15-500 ng/ml. Peptide-MHC monomers of the UV-exchange reaction were diluted 100-fold in blocking buffer. Samples were incubated for 1 h at 37° C., washed four times, incubated with 2 ug/ml HRP conjugated anti-β2m for 1 h at 37° C., washed again and detected with TMB solution that is stopped with […]. Absorption was measured at 450 nm. Candidate peptides that show a high exchange yield (preferably higher than 50%, most preferred higher than 75%) are generally preferred for a generation and production of antibodies or fragments thereof, and/or T cell receptors or fragments thereof, as they show sufficient avidity to the MHC molecules and prevent dissociation of the MHC complexes.

Substance: 102 (RLLQHTPSAR; listed as Homo sapiens) [compound 102]
Peptide exchange (MHC class I binding score, peptide exchange yield): ++++ (>75% = ++++)

Substance: 141 (RLRDYISSLK; listed as Homo sapiens) [compound 141]
Peptide exchange (MHC class I binding score, peptide exchange yield): ++++ (>75% = ++++)

Substance: 142 (SPRVYWLGLNDR; listed as Homo sapiens) [compound 142]
Peptide exchange (MHC class I binding score, peptide exchange yield): + (>10% = +)

Substance: 25 (KTWAHCMSY; listed as Homo sapiens) [compound 25]
Peptide exchange (MHC class I binding score, peptide exchange yield): ++++ (>75% = ++++)

Substance: 59 (KINQYIIKK; listed as Homo sapiens) [compound 59]
Peptide exchange (MHC class I binding score, peptide exchange yield): +++ (>50 = +++)

Substance: 86 (RVSGSGGGGAGK; listed as Homo sapiens) [compound 86]
Peptide exchange (MHC class I binding score, peptide exchange yield): +++ (>50 = +++)

Substance: 60 (VVFPFPVNKR; listed as Homo sapiens) [compound 60]
Peptide exchange (MHC class I binding score, peptide exchange yield): +++ (>50 = +++)

Substance: 88 (GTHVWVGLYK; listed as Homo sapiens) [compound 88]
Peptide exchange (MHC class I binding score, peptide exchange yield): ++++ (>75% = ++++)

Substance: 17 (GGLSSQGVYY; listed as Homo sapiens) [compound 17]
Peptide exchange (MHC class I binding score, peptide exchange yield): ++ (>20% = ++)

Substance: 148 (RIGNKGIYK; listed as Homo sapiens) [compound 148]
Peptide exchange (MHC class I binding score, peptide exchange yield): +++ (>50 = +++)

Substance: 85 (IMPTFDLTK; listed as Homo sapiens) [compound 85]
Peptide exchange (MHC class I binding score, peptide exchange yield): + (>10% = +)

Substance: 16 (KVFAEHKISY; listed as Homo sapiens) [compound 16]
Peptide exchange (MHC class I binding score, peptide exchange yield): +++ (>50 = +++)

Substance: 49 (ITAPLMPLGK; listed as Homo sapiens) [compound 49]
Peptide exchange (MHC class I binding score, peptide exchange yield): ++++ (>75% = ++++)

Substance: 75 (IIFVPEMNK; listed as Homo sapiens) [compound 75]
Peptide exchange (MHC class I binding score, peptide exchange yield): ++++ (>75% = ++++)

Substance: 66 (RVKEIVINK; listed as Homo sapiens) [compound 66]
Peptide exchange (MHC class I binding score, peptide exchange yield): +++ (>50 = +++)

Substance: 122 (LIGPLLICK; listed as Homo sapiens) [compound 122]
Peptide exchange (MHC class I binding score, peptide exchange yield): ++++ (>75% = ++++)

Substance: 7 (RLVELAGQSLLK; listed as Homo sapiens) [compound 7]
Peptide exchange (MHC class I binding score, peptide exchange yield): ++++ (>75% = ++++)

Substance: 115 (AILHPFRAK; listed as Homo sapiens) [compound 115]
Peptide exchange (MHC class I binding score, peptide exchange yield): +++ (>50 = +++)

Substance: 97 (RVRALGSQY; listed as Homo sapiens) [compound 97]
Peptide exchange (MHC class I binding score, peptide exchange yield): ++++ (>75% = ++++)

Substance: 38 (SLFPYYNNLY; listed as Homo sapiens) [compound 38]
Peptide exchange (MHC class I binding score, peptide exchange yield): + (>10% = +)

Substance: RLPLRVVKH (listed as Homo sapiens) [SEQ ID NO: 271]
binding to HLA-A*03: binds to HLA-A*03

Substance: 20 (LLPTVLIKK; listed as Homo sapiens) [compound 20]
Peptide exchange (MHC class I binding score, peptide exchange yield): +++ (>50 = +++)

Substance: 113 (VSIRNTLLY; listed as Homo sapiens) [compound 113]
Peptide exchange (MHC class I binding score, peptide exchange yield): + (>10% = +)

Substance: 9 (HVLYPVPLESY; listed as Homo sapiens) [compound 9]
Peptide exchange (MHC class I binding score, peptide exchange yield): +++ (>50 = +++)

Substance: 73 (RCFSGPYLNK; listed as Homo sapiens) [compound 73]
Peptide exchange (MHC class I binding score, peptide exchange yield): ++++ (>75% = ++++)

Substance: 150 (LLLAAVTVK; listed as Homo sapiens) [compound 150]
Peptide exchange (MHC class I binding score, peptide exchange yield): ++ (>20% = ++)

Substance: 104 (AVVQGLVEK; listed as Homo sapiens) [compound 104]
Peptide exchange (MHC class I binding score, peptide exchange yield): ++ (>20% = ++)

Substance: 68 (KGPMAGILAY; listed as Homo sapiens) [compound 68]
Peptide exchange (MHC class I binding score, peptide exchange yield): ++ (>20% = ++)

Substance: 27 (SGSTLECILYK; listed as Homo sapiens) [compound 27]
Peptide exchange (MHC class I binding score, peptide exchange yield): ++++ (>75% = ++++)

Substance: 99 (RTYTCQVTY; listed as Homo sapiens) [compound 99]
Peptide exchange (MHC class I binding score, peptide exchange yield): ++++ (>75% = ++++)

Substance: 145 (SLFEGIYTIK; listed as Homo sapiens) [compound 145]
Peptide exchange (MHC class I binding score, peptide exchange yield): ++++ (>75% = ++++)

Substance: 127 (GLAAGALLLY; listed as Homo sapiens) [compound 127]
Peptide exchange (MHC class I binding score, peptide exchange yield): ++ (>20% = ++)

Substance: 128 (KIKKPLSYR; listed as Homo sapiens) [compound 128]
Peptide exchange (MHC class I binding score, peptide exchange yield): ++++ (>75% = ++++)

Substance: 112 (ASLAAAVLAK; listed as Homo sapiens) [compound 112]
Peptide exchange (MHC class I binding score, peptide exchange yield): +++ (>50 = +++)

Substance: 19 (ALAAKLEVK; listed as Homo sapiens) [compound 19]
Peptide exchange (MHC class I binding score, peptide exchange yield): ++++ (>75% = ++++)

Substance: 118 (SLRGSFPILY; listed as Homo sapiens) [compound 118]
Peptide exchange (MHC class I binding score, peptide exchange yield): + (>10% = +)

Substance: 14 (VAFFVLPSK; listed as Homo sapiens) [compound 14]
Peptide exchange (MHC class I binding score, peptide exchange yield): ++ (>20% = ++)

Continued, values first:

Peptide exchange (MHC class I binding score, peptide exchange yield): +++ (>50 = +++)
Substance: 175 (VIGTTSSPK; listed as Homo sapiens) [compound 175]

Peptide exchange (MHC class I binding score, peptide exchange yield): +++ (>50 = +++)
Substance: 178 (RIYVYVKRK; listed as Homo sapiens) [compound 178]

Peptide exchange (MHC class I binding score, peptide exchange yield): ++++ (>75% = ++++)
Substance: 272 (AVCGGVLVH; listed as Homo sapiens) [compound 272]

Peptide exchange (MHC class I binding score, peptide exchange yield): ++++ (>75% = ++++)
Substance: 224 (SLYDGFLSY; listed as Homo sapiens) [compound 224]

Peptide exchange (MHC class I binding score, peptide exchange yield): +++ (>50 = +++)
Substance: 218 (KAFNQSSIFTK; listed as Homo sapiens) [compound 218]

Peptide exchange (MHC class I binding score, peptide exchange yield): ++++ (>75% = ++++)
Substance: 158 (RALGVPFVPR; listed as Homo sapiens) [compound 158]

Peptide exchange (MHC class I binding score, peptide exchange yield): +++ (>50 = +++)
Substance: 211 (VSLGTPIMK; listed as Homo sapiens) [compound 211]

Peptide exchange (MHC class I binding score, peptide exchange yield): +++ (>50 = +++)
Substance: 217 (RVYEGDGRNSLK; listed as Homo sapiens) [compound 217]

Peptide exchange (MHC class I binding score, peptide exchange yield): +++ (>50 = +++)
Substance: 184 (KVLEPPLGAR; listed as Homo sapiens) [compound 184]

Peptide exchange (MHC class I binding score, peptide exchange yield): ++++ (>75% = ++++)
Substance: 208 (KTGWFTLLY; listed as Homo sapiens) [compound 208]

Peptide exchange (MHC class I binding score, peptide exchange yield): ++++ (>75% = ++++)
Substance: 195 (KLQAKVLQY; listed as Homo sapiens) [compound 195]

Peptide exchange (MHC class I binding score, peptide exchange yield): +++ (>50 = +++)
Substance: 253 (KLSLSHKK; listed as Homo sapiens) [compound 253]

Peptide exchange (MHC class I binding score, peptide exchange yield): +++ (>50 = +++)
Substance: 185 (SIINFKPLTY; listed as Homo sapiens) [compound 185]

Peptide exchange (MHC class I binding score, peptide exchange yield): ++++ (>75% = ++++)
Substance: 254 (SVLDKLLFH; listed as Homo sapiens) [compound 254]

Peptide exchange (MHC class I binding score, peptide exchange yield): +++ (>50 = +++)
Substance: 173 (VSYNRLIK; listed as Homo sapiens) [compound 173]

Peptide exchange (MHC class I binding score, peptide exchange yield): ++++ (>75% = ++++)
Substance: 176 (RLYDAYVNR; listed as Homo sapiens) [compound 176]

Peptide exchange (MHC class I binding score, peptide exchange yield): ++++ (>75% = ++++)
Substance: 201 (KVADFGLARLLK; listed as Homo sapiens) [compound 201]

Peptide exchange (MHC class I binding score, peptide exchange yield): ++++ (>75% = ++++)
Substance: 210 (KIFQGQINK; listed as Homo sapiens) [compound 210]

Peptide exchange (MHC class I binding score, peptide exchange yield): ++++ (>75% = ++++)
Substance: 222 (RSNPYFQNK; listed as Homo sapiens) [compound 222]

Peptide exchange (MHC class I binding score, peptide exchange yield): ++++ (>75% = ++++)
Substance: 187 (KTCQVSGLLY; listed as Homo sapiens) [compound 187]

Peptide exchange (MHC class I binding score, peptide exchange yield): ++ (>20% = ++)
Substance: 156 (VSLGIAVSK; listed as Homo sapiens) [compound 156]

Peptide exchange (MHC class I binding score, peptide exchange yield): ++++ (>75% = ++++)
Substance: 160 (RLLPGKVVWK; listed as Homo sapiens) [compound 160]

Peptide exchange (MHC class I binding score, peptide exchange yield): ++++ (>75% = ++++)
Substance: 226 (RVWLGKHYK; listed as Homo sapiens) [compound 226]

Peptide exchange (MHC class I binding score, peptide exchange yield): ++ (>20% = ++)
Substance: 188 (SSLPRAFQK; listed as Homo sapiens) [compound 188]

Peptide exchange (MHC class I binding score, peptide exchange yield): ++++ (>75% = ++++)
Substance: 221 (RLAVSTRGK; listed as Homo sapiens) [compound 221]

Peptide exchange (MHC class I binding score, peptide exchange yield): ++++ (>75% = ++++)
Substance: 177 (ALLGVIIAKK; listed as Homo sapiens) [compound 177]
